Measured values: EP0669979B1 (GENENTECH, INC., dated 2005)

T1: C-C chemokine receptor 1 (C-C CKR-1) (human, UniProt P32246 1-355)
T1 construct: Transiently expressed from pRK5 in human embryonic kidney 293 cells; also called JOSH1; cloned C-C CKR-1
T1 sequence: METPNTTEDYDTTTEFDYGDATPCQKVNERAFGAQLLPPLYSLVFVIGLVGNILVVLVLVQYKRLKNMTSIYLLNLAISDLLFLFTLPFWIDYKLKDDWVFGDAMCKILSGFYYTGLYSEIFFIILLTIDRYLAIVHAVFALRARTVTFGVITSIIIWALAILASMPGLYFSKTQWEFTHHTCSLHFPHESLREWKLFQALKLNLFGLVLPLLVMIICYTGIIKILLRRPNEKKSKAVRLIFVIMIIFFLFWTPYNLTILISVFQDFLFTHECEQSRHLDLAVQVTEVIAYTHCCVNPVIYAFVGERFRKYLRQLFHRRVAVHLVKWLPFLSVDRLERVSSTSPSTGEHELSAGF

B1: RANTES (Regulated on Activation, Normal T Expressed and Secreted) (ligand, UniProt P13501 24-91, looked up)
chain: SPYSSDTTPCCFAYIARPLPRAHIKEYFYTSGKCSNPAVVFVTRKNRQVCANPEKKWVREYINSLEMS
modifications: ends and bridges not checked; also: 125I-labeled where used as tracer
B2: human MIP-1α (HuMIP-1α) (ligand, UniProt P10147 24-92, looked up)
chain: SLAADTPTACCFSYTSRQIPQNFIADYFETSSQCSKPGVIFLTKRSRQVCADPSEEWVQKYVSDLELSA
modifications: ends and bridges not checked; also: 125I-iodinated (chloroglycoluril) where used as tracer
notes: also called HuMIP-1a
B3: murine MIP-1α (ligand, UniProt P10855 24-92, looked up)
chain: APYGADTPTACCFSYSRKIPRQFIVDYFETSSLCSQPGVIFLTKRNRQICADSKETWVQEYITDLELNA
B4: human MIP-1β (HuMIP-1β) (ligand, UniProt P13236 24-92, looked up)
chain: APMGSDPPTACCFSYTARKLPRNFVVDYYETSSLCSQPAVVFQTKRSKQVCADPSESWVQEYVYDLELN
notes: also called HuMIP-1b; MIP-lb

Columns and labels:
[1] = target: T1, C-C chemokine receptor 1 (C-C CKR-1); test: heterologous displacement of 125I-HuMIP-1α on 293 cells expressing C-C CKR-1, Scatchard analysis
[2] = target: T1, C-C chemokine receptor 1 (C-C CKR-1); test: heterologous displacement of 125I-RANTES by unlabeled HuMIP-1α on 293 cells expressing C-C CKR-1, Scatchard analysis
[3] = target: T1, C-C chemokine receptor 1 (C-C CKR-1); test: 125I-HuMIP-1α displaced by unlabeled HuMIP-1α on 293 cells expressing C-C CKR-1, 4 °C, Scatchard analysis

Row | Binder | Kd [1] [nM] | Kd [2] [nM] | Kd [3] [nM]
1 | B1 | 468 | – | –
2 | B2 | – | 7.6 | 5.1
3 | B3 | 4.2 | – | –
4 | B4 | 232 | – | –
